The numbers were not newly measured in patent publication US12485093B2, “Composition for use as an antiviral in the form of nasal drops and in nebulisers” (DERMOPARTNERS, S.L., priority 2021, dated 2025), which cites them from elsewhere.

Data set [1] concerns SARS-CoV-2. The settings on record: African green monkey kidney epithelial cells, 1 mg/ml.
In data set [2] the test system is SARS-CoV-2. The settings on record: adenocarcinoma human alveolar basal epithelial cells (A549), 1 mg/ml.
For data set [3], the system named is viral entry into host cells. The settings on record: by interacting with viral and/or cell surface receptors.

Read-outs that look alike come from different tables or passages of the source.

B1: lactoferrin (protein, UniProt P02788 20-710, looked up)
Lactotransferrin: GRRRSVQWCAVSQPEATKCFQWQRNMRKVRGPPVSCIKRDSPIQCIQAIAENRADAVTLDGGFIYEAGLAPYKLRPVAAEVYGTERQPRTHYYAVAVVKKGGSFQLNELQGLKSCHTGLRRTAGWNVPIGTLRPFLNWTGPPEPIEAAVARFFSASCVPGADKGQFPNLCRLCAGTGENKCAFSSQEPYFSYSGAFKCLRDGAGDVAFIRESTVFEDLSDEAERDEYELLCPDNTRKPVDKFKDCHLARVPSHAVVARSVNGKEDAIWNLLRQAQEKFGKDKSPKFQLFGSPSGQKDLLFKDSAIGFSRVPPRIDSGLYLGSGYFTAIQNLRKSEEEVAARRARVVWCAVGEQELRKCNQWSGLSEGSVTCSSASTTEDCIALVLKGEADAMSLDGGYVYTAGKCGLVPVLAENYKSQQSSDPDPNCVDRPVEGYLAVAVVRRSDTSLTWNSVKGKKSCHTAVDRTAGWNIPMGLLFNQTGSCKFDEYFSQSCAPGSDPRSNLCALCIGDEQGENKCVPNSNERYYGYTGAFRCLAENAGDVAFVKDVTVLQNTDGNNNEAWAKDLKLADFALLCLDGKRKPVTEARSCHLAMAPNHAVVSRMDKVERLKQVLLHQQAKFGRNGSDCPDKFCLFQSETKNLLFNDNTECLARLHGKTTYEKYLGPQYVAGITNLKKCSTSPLLEACEFLRK
notes: naturally occurring, non-toxic glycoprotein, multifunctional protein of the immune system
Broadly, the IC50 is the concentration that gives 50% inhibition. Regarding B1, the “inhibition of SARS-CoV-2” value in the data set with SARS-CoV-2 [1] and in the data set with SARS-CoV-2 [2] was “capable of inhibiting SARS-CoV-2” each time. In addition, the “block of viral entry into host cells” value in data set [3] is recorded as “managed to block viral entry into host cells”. In addition, the “effect on efficacy of remdesivir and hydroxychloroquine” value in the data set on SARS-CoV-2 infection is “potentiated the efficacy of both remdesivir and hydroxychloroquine”. The IC50 with SARS-CoV-2 infection (read-out: IC50 of inhibition of SARS-CoV-2 infection) was 308 nM.
